Measurements from US20120251444A1 (RAPTOR PHARMACEUTICALS, published 2012).
Bridge positions count the residues as written; N and C are the ends. * marks the point of attachment. Biotin = O=C1N[C@H]2[C@H](CS[C@H]2CCCCC(=O)*)N1

B1: RAP d3 (ligand)
chain: GLDRLRRVSHQGYSTEAEFEEPRVIDLWDLAQSANLTDKELEAFREELKHFEAKIEKHNHYQKQLEIAHEKLRHAESVGDGERVSRSREKHALLEGRTKELGYTVKKHLQDLSGRISRARHNEL
notes: also called recombinant RAP d3
B2: LRP1 CR3-5 (receptor)
chain: not shown
notes: domain: CR3-5; also called LRP1 CR domains
B3: LRP2 CR89 (receptor)
chain: not shown
notes: domain: CR89
B4: MegaRAP1 d3 (ligand)
chain: GLDRLRRVSHQGYTTEAKFEEPRVIDLWDLAQSANLTDKELEAFREELKYFKAKIEAHNHYQKQLEIAHEELRHAESVGDGERVSRSREKHALLEGRTKELGYTVKKHLQDLSGRISRARHNEL
notes: also called RAPv2A d3; RAP v2
B5: MegaRAP1 d3 A256K (ligand)
chain: GLDRLRRVSHQGYTTEAKFEEPRVIDLWDLAQSANLTDKELEAFREELKYFKAKIEKHNHYQKQLEIAHEELRHAESVGDGERVSRSREKHALLEGRTKELGYTVKKHLQDLSGRISRARHNEL
notes: also called MegaRAP1 A256K
B6: MegaRAP1 d3 A256K, E270K (ligand)
chain: GLDRLRRVSHQGYTTEAKFEEPRVIDLWDLAQSANLTDKELEAFREELKYFKAKIEKHNHYQKQLEIAHEKLRHAESVGDGERVSRSREKHALLEGRTKELGYTVKKHLQDLSGRISRARHNEL
notes: also called MegaRAP1 A256K, E270K
B7: MegaRAP1 d3 E270K (ligand)
chain: GLDRLRRVSHQGYTTEAKFEEPRVIDLWDLAQSANLTDKELEAFREELKYFKAKIEAHNHYQKQLEIAHEKLRHAESVGDGERVSRSREKHALLEGRTKELGYTVKKHLQDLSGRISRARHNEL
notes: also called MegaRAP1 E270K
B8: MegaRAP1 d3 K217E (ligand)
chain: GLDRLRRVSHQGYTTEAEFEEPRVIDLWDLAQSANLTDKELEAFREELKYFKAKIEAHNHYQKQLEIAHEELRHAESVGDGERVSRSREKHALLEGRTKELGYTVKKHLQDLSGRISRARHNEL
notes: also called MegaRAP1 K217E
B9: MegaRAP1 d3 K251E (ligand)
chain: GLDRLRRVSHQGYTTEAKFEEPRVIDLWDLAQSANLTDKELEAFREELKYFEAKIEAHNHYQKQLEIAHEELRHAESVGDGERVSRSREKHALLEGRTKELGYTVKKHLQDLSGRISRARHNEL
notes: also called MegaRAP1 K251E
B10: MegaRAP1 d3 K251E, E270K (ligand)
chain: GLDRLRRVSHQGYTTEAKFEEPRVIDLWDLAQSANLTDKELEAFREELKYFEAKIEAHNHYQKQLEIAHEKLRHAESVGDGERVSRSREKHALLEGRTKELGYTVKKHLQDLSGRISRARHNEL
notes: also called MegaRAP1 K251E, E270K
B11: MegaRAP1 d3 T213S (ligand)
chain: GLDRLRRVSHQGYSTEAKFEEPRVIDLWDLAQSANLTDKELEAFREELKYFKAKIEAHNHYQKQLEIAHEELRHAESVGDGERVSRSREKHALLEGRTKELGYTVKKHLQDLSGRISRARHNEL
notes: also called MegaRAP1 T213S
B12: MegaRAP1 d3 Y249H (ligand)
chain: GLDRLRRVSHQGYTTEAKFEEPRVIDLWDLAQSANLTDKELEAFREELKHFKAKIEAHNHYQKQLEIAHEELRHAESVGDGERVSRSREKHALLEGRTKELGYTVKKHLQDLSGRISRARHNEL
notes: also called MegaRAP1 Y249H
B13: RAP d3 E217K (ligand)
chain: GLDRLRRVSHQGYSTEAKFEEPRVIDLWDLAQSANLTDKELEAFREELKHFEAKIEKHNHYQKQLEIAHEKLRHAESVGDGERVSRSREKHALLEGRTKELGYTVKKHLQDLSGRISRARHNEL
notes: also called RAP E217K
B14: RAP d3 E251K (ligand)
chain: GLDRLRRVSHQGYSTEAEFEEPRVIDLWDLAQSANLTDKELEAFREELKHFKAKIEKHNHYQKQLEIAHEKLRHAESVGDGERVSRSREKHALLEGRTKELGYTVKKHLQDLSGRISRARHNEL
notes: also called RAP E251K
B15: RAP d3 E251K, K256A, K270E (ligand)
chain: GLDRLRRVSHQGYSTEAEFEEPRVIDLWDLAQSANLTDKELEAFREELKHFKAKIEAHNHYQKQLEIAHEELRHAESVGDGERVSRSREKHALLEGRTKELGYTVKKHLQDLSGRISRARHNEL
notes: also called RAP E251K, K256A, K270E
B16: RAP d3 E251K, K270E (ligand)
chain: GLDRLRRVSHQGYSTEAEFEEPRVIDLWDLAQSANLTDKELEAFREELKHFKAKIEKHNHYQKQLEIAHEELRHAESVGDGERVSRSREKHALLEGRTKELGYTVKKHLQDLSGRISRARHNEL
notes: also called RAP E251K, K270E
B17: RAP d3 H249Y (ligand)
chain: GLDRLRRVSHQGYSTEAEFEEPRVIDLWDLAQSANLTDKELEAFREELKYFEAKIEKHNHYQKQLEIAHEKLRHAESVGDGERVSRSREKHALLEGRTKELGYTVKKHLQDLSGRISRARHNEL
notes: also called RAP H249Y
B18: RAP d3 K256A, K270E (ligand)
chain: GLDRLRRVSHQGYSTEAEFEEPRVIDLWDLAQSANLTDKELEAFREELKHFEAKIEAHNHYQKQLEIAHEELRHAESVGDGERVSRSREKHALLEGRTKELGYTVKKHLQDLSGRISRARHNEL
notes: also called RAP K256A, K270E
B19: RAP d3 K270E (ligand)
chain: GLDRLRRVSHQGYSTEAEFEEPRVIDLWDLAQSANLTDKELEAFREELKHFEAKIEKHNHYQKQLEIAHEELRHAESVGDGERVSRSREKHALLEGRTKELGYTVKKHLQDLSGRISRARHNEL
notes: also called RAP K270E
B20: mRAP-8c (peptide)
peptide: GGSGGCGKHFEAKIEKHNHYQKQLEIAHEKLRHAESVGDGERVSRSREKHALLEGRTKELGYTVKKHLQDGC
modifications: N-terminal biotin (biotin-GGSGG)
notes: Cysteines at both ends are meant for cyclization by a disulfide bond
B21: mRAP-14c (peptide)
peptide: Biotin-GGSGGCEAKIEKHNHYQKQLEIAHEKLRHAESVGDGERVSRSREKHALLEGRTKELGYTVKKHGC
modifications: disulfide 6-65
notes: as for B20

Columns and labels:
LRP1 CR3-5 [1] = biological target: B2; experiment: solid-phase binding, OD at highest concentration against highest OD of all ligands
LRP2 CR89 [2] = biological target: B3; experiment: as above
Sequence of LRP2 CR89 (P98164 1025-1102 limits assumed): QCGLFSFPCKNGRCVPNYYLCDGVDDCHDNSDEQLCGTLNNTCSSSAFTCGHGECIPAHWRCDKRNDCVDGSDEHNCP

RAP d3 [3] = biological target: B1; experiment: solid-phase binding (OD), single-site non-linear regression
RAP d3 [4] = biological target: B1; experiment: binding titration on LRP2 CR89, absorbance against nM of ligand
LRP2 CR89 [5] = biological target: B3; experiment: solid-phase binding (OD), single-site non-linear regression
LRP1 CR3-5 [6] = biological target: B2; experiment: binding titration on LRP1 CR3-5, absorbance against nM of ligand
LRP2 CR89 [7] = biological target: B3; experiment: binding titration on LRP2 CR89, absorbance against nM of ligand
LRP1 CR3-5 [8] = biological target: B2; experiment: solid-phase binding (OD), single-site non-linear regression
[9] = biological target: T1, recombinant human LRP1 cluster II (R&D Systems, amino acids 786-1165, with C-terminal Fc tag) (human, UniProt Q07954 786-1165); experiment: solid phase binding assay, LRP1 cluster II-Fc coated on plate
T1 construct: range 786-1165; Bought from R&D Systems; coated on plates; also called LRP1-C2; not shown: C-terminal Fc tag of the bought protein
T1 sequence (looked up): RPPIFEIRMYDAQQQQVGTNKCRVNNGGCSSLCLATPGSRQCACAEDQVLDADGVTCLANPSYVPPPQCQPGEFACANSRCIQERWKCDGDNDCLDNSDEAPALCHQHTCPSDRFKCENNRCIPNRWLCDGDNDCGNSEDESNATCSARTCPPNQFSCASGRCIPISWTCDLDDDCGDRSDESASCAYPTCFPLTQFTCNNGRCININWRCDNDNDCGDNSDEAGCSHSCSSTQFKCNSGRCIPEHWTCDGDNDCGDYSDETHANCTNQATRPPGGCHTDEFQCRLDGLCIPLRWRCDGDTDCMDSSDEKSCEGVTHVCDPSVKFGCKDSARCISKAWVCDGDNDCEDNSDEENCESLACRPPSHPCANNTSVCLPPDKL
Procedure: Control wells contained no added inhibitor. Wells were washed with TBS supplemented with 5 mM CaCl₂ and 0.05% Tween-20. […] Excess HRP conjugate was removed and wells washed. Color was developed using TMB reagents (BioRad, Hercules, Calif.).

| Binder | % max (percent of maximum binding) (LRP1 CR3-5 [1]) [%] | % max (percent of maximum binding) (LRP2 CR89 [2]) [%] | Kd (LRP2 CR89 [5]) [nM] | binding result (LRP1 CR3-5 [6]) | other results |
| --- | --- | --- | --- | --- | --- |
| B1 | 76 | 5 |  |  |  |
| B2 |  |  |  |  | Kd (RAP d3 [3]): 16 nM |
| B3 |  |  |  |  | binding result (RAP d3 [4]): no binding (tested: 100 nM) |
| B4 | 4 | 88 | 38 | no binding (tested: 100 nM) |  |
| B5 | 6 | 2 |  | no binding (tested: 100 nM) | binding result (LRP2 CR89 [7]): no binding (tested: 100 nM) |
| B6 | 93 | 73 | 72 |  | Kd (LRP1 CR3-5 [8]): 4 nM |
| B7 | 85 | 100 | 8 |  | Kd (LRP1 CR3-5 [8]): 114 nM |
| B8 | 2 | 88 | 25 | no binding (tested: 100 nM) |  |
| B9 | 2 | 11 |  | no binding (tested: 100 nM) |  |
| B10 | 16 | 16 | 153 |  |  |
| B11 | 2 | 94 | 19 | no binding (tested: 100 nM) |  |
| B12 | 2 | 35 |  | no binding (tested: 100 nM) |  |
| B13 | 91 | 5 |  |  | Kd (LRP1 CR3-5 [8]): 9 nM; binding result (LRP2 CR89 [7]): no binding (tested: 100 nM) |
| B14 | 100 | 5 |  |  | Kd (LRP1 CR3-5 [8]): 7 nM; binding result (LRP2 CR89 [7]): no binding (tested: 100 nM) |
| B15 | 2 | 40 | 114 | no binding (tested: 100 nM) |  |
| B16 | 4 | 2 |  | no binding (tested: 100 nM) |  |
| B17 | 90 | 2 |  |  | Kd (LRP1 CR3-5 [8]): 28 nM; binding result (LRP2 CR89 [7]): no binding (tested: 100 nM) |
| B18 | 2 | 3 |  | no binding (tested: 100 nM) | binding result (LRP2 CR89 [7]): no binding (tested: 100 nM) |
| B19 | 4 | 2 |  | no binding (tested: 100 nM) | binding result (LRP2 CR89 [7]): no binding (tested: 100 nM) |
| B20 |  |  |  |  | Kd [9]: ~4 nM |
| B21 |  |  |  |  | Kd [9]: ~21 nM |
